For 72 sequences, protein stability index results are on record in the supplement of paper PMC10567573.

± gives the standard deviation.

The data set can be described thus: protein stability index of a GFP-peptide fusion (GPS, HEK-293T) (PSI 1-6); higher = more stable.
Where [1] appears, read: treatment: DMSO, c terminus: a fixed tail appended.
Setting [2] is: treatment: MLN4924 1 uM, 8 h, c terminus: a fixed tail appended.
[3] abbreviates: treatment: DMSO, c terminus: native.
Setting [4] is: treatment: MLN4924 1 uM, 8 h, c terminus: native.
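Note: 24-mer peptide tiles fused after GFP, lentivirally expressed, FACS-sorted into six equal bins by GFP/DsRed ratio, decoded by Illumina sequencing, PSI is the read-weighted mean bin number.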

Turning to PGMPPPVPRPGIPPMTQAQAVSAP [ZNF207], the protein stability index runs as follows: under setting [1], 4.94 ± 0.15; under setting [2], 4.86 ± 0.19.

Regarding PGSILYSSSGDLADLENEDIFPEL [DLC1], the protein stability index stood at 4.69 ± 0.14 under setting [1] and 4.77 ± 0.32 under setting [2].

With PLDSKENLENPMRRIHSLPQKLLG [CDC25A], the protein stability index was determined as 3.29 ± 0.32 under setting [1] and 3.79 ± 0.16 under setting [2].

PLTRLGQLKACTNFDDILNVCDDY [KCNG1]: the protein stability index reads like this: under setting [1], 3.18 ± 0.29; under setting [2], 3.34 ± 0.23.

PMMEHEMGGHHPGADYPVDGLPDL [CTNNB1] gave a protein stability index under setting [1] of 5.2 ± 0.23 and a protein stability index under setting [2] of 5.24 ± 0.13.

Regarding PPAQGRVSRRLSPRKVSTCTDHEL [TRIM9], the protein stability index by setting is: under setting [1], 5.031 ± 0.046; under setting [2], 4.87 ± 0.35.

Regarding PPIPILELADHIERLKANDNLKFS [PTPRD], the protein stability index came to 3.56 ± 0.19 under setting [1] and 3.32 ± 0.2 under setting [2].

Take PPPNRMYPPPPPALPSSAPSGPPP [WASL]: the protein stability index under setting [1] was found to be 5.01 ± 0.3 and the protein stability index under setting [2] amounted to 5.08 ± 0.13.

Regarding PQALATRALPCPAHVVFRYQGVRM [FCHSD1], the protein stability index was 2.69 ± 0.2 under setting [1] and 2.69 ± 0.22 under setting [2].

With PQEFQKTVSTMYYLWMCSTLALLL [SCAMP3], the protein stability index is 2.88 ± 0.47 under setting [1] and 2.77 ± 0.67 under setting [2].

In the case of PSPTSPPPPELMDVSLVGGPADCS [DYRK1B], the protein stability index runs as follows: under setting [1], 5.09 ± 0.1; under setting [2], 5.14 ± 0.22.

For PSRGHAYRDYGHSRRDESYSRGYR [RBMY1A1], the protein stability index by setting is: under setting [1], 4.42 ± 0.13; under setting [2], 4.34 ± 0.26.

As for PSTASLLLCPGGLDHKLNLRGKAW [TIAF1], the protein stability index by setting is: under setting [1], 2.69 ± 0.24; under setting [2], 2.87 ± 0.24.

For PTARHFQEHPRQQLATSSFLLFLL [MOSPD3], the protein stability index reads like this: under setting [1], 2.2 ± 0.24; under setting [2], 2.23 ± 0.4.

For the sequence PTFKSFEERVETTVTSLKTKVGGT [TPD52L1], the protein stability index runs as follows: under setting [1], 4.64 ± 0.25; under setting [2], 4.65 ± 0.033.

For the sequence PVEYRSDVNSFVTECEPSELFQLQ [CDS1], the protein stability index was 4.5 ± 0.36 under setting [1] and 4.55 ± 0.18 under setting [2].

As to PYPASKADIPSVAFSSRLGGSRGA [DCAF4], the protein stability index reads like this: under setting [1], 3.71 ± 0.22; under setting [2], 3.8 ± 0.41.

For the sequence QADTVHSNPELDVLLLGSVDGRHL [DNAAF3], the protein stability index runs as follows: under setting [1], 3.77 ± 0.4; under setting [2], 4 ± 0.3.

In the case of QAGPSPAPPTPPEEEDLRRRLKYF [MCOLN1], the protein stability index came to 4.91 ± 0.14 under setting [1] and 4.99 ± 0.17 under setting [2].

For the sequence QAIVTEDKTDISSGRARQQDEEML [MLH1], the protein stability index is, setting by setting: under setting [1], 5.23 ± 0.22; under setting [2], 5.38 ± 0.14.

With QAKPEKAAVAQKPRSHFTTPAPMS [MYBL2], the protein stability index by setting is: under setting [1], 4.44 ± 0.34; under setting [2], 4.39 ± 0.11.

Regarding QAYKWSNKLQYHAGLASGLLNQQS [MED27], the protein stability index under setting [1] is 2.46 ± 0.28 and the protein stability index under setting [2] was found to be 2.42 ± 0.096.

With QCKDALEIYKRFLTRMTRVSEFLK [SNAP91], the protein stability index is 2.77 ± 0.9 under setting [1] and 2.51 ± 0.24 under setting [2].

Take QCRDLVDEAKKFHLRPELRSQMQG [KLHL12]: the protein stability index is, setting by setting: under setting [1], 3.38 ± 0.18; under setting [2], 3.53 ± 0.13.

QEIEDKMKGFSFKEDTLLLIAEVM [C8orf76]: the protein stability index runs as follows: under setting [1], 2.54 ± 0.68; under setting [2], 2.16 ± 0.44.

Take QEILLAHRRFCELLPQEQRSVESS [CIB1]: the protein stability index amounted to 4.16 ± 0.15 under setting [1] and 4.32 ± 0.11 under setting [2].

On to QERQGPAKPEVLSIQWPGKRSSRR [NECAB1], for which the protein stability index by setting is: under setting [1], 4.88 ± 0.21; under setting [2], 4.93 ± 0.13.

With QETAEFFLSLDIPIGELYGLSESS [ACSBG2], the protein stability index reads like this: under setting [1], 2.61 ± 0.37; under setting [2], 2.47 ± 0.41.

Regarding QGEEVAQRSTVFKTTIPEEEEEEE [LMNB1], the protein stability index by setting is: under setting [1], 5.63 ± 0.19; under setting [2], 5.64 ± 0.25.

Consider QGIYEEYEDIRRENPVGTFHCSMS [PTPN9], for which the protein stability index was determined as 3.84 ± 0.28 under setting [1] and 3.98 ± 0.26 under setting [2].

Take QGTARTLSPVLESPRDLQFSEIRE [TNXB]: the protein stability index is 4.64 ± 0.16 under setting [1] and 4.78 ± 0.18 under setting [2].

Consider QGTELWVAERGTTQGCHPAWEPRS [ZNF8], for which the protein stability index runs as follows: under setting [1], 3.24 ± 0.16; under setting [2], 3.1 ± 0.27.

With QHKCDECGKSFTQSSGLIRHQRIH [ZSCAN9], the protein stability index runs as follows: under setting [1], 5.26 ± 0.19; under setting [2], 5.28 ± 0.12.

As to QIEGLNEELAYLKKNHEEEMKEFS [KRT15], the protein stability index reads like this: under setting [1], 5.25 ± 0.33; under setting [2], 5.3 ± 0.19.

As to QIKRKARNEGRNRRRQQVLPLKS [CDKL4], the protein stability index turned out to be 2.87 ± 0.24 under setting [3] and 3.44 ± 0.35 under setting [4].

Take QKNFELAFTMAENLANCERLIEVE [SMTNL2]: the protein stability index by setting is: under setting [1], 2.45 ± 0.2; under setting [2], 2.88 ± 0.67.

As for QLDGLGFLYVTGHIKEILITAGGE [ACSBG2], the protein stability index by setting is: under setting [1], 2.66 ± 0.54; under setting [2], 2.44 ± 0.64.

Regarding QLELRAGAERLDALLADEERCLSC [TRADD], the protein stability index reads like this: under setting [1], 3.98 ± 0.25; under setting [2], 4.24 ± 0.18.

Regarding QLIYNHITTRVNSEQEHFLIVPFG [ADD1], the protein stability index reads like this: under setting [1], 2.41 ± 0.27; under setting [2], 2.26 ± 0.08.

In the case of QLLEQKQAYWAQAEDTAAPAEESK [CBY2], the protein stability index amounted to 5.01 ± 0.25 under setting [1] and 4.96 ± 0.23 under setting [2].

Turning to QMPTEIEFPESRKPISTKSQFLKH [ZNF649], the protein stability index was 4.16 ± 0.19 under setting [1] and 4.26 ± 0.19 under setting [2].

As to QMQDDEQKTRLLEDSVSRLEKEIE [PALM], the protein stability index amounted to 5.11 ± 0.15 under setting [1] and 4.97 ± 0.1 under setting [2].

For the sequence QNAALRGELSQARGQEPARADQLC [PRPH], the protein stability index was 5.12 ± 0.23 under setting [1] and 5.02 ± 0.37 under setting [2].

On to QNLLGFTPEELHAILGVQPDTED [ETS2], for which the protein stability index amounted to 4.78 ± 0.39 under setting [3] and 4.85 ± 0.34 under setting [4].

For QPIHLWQFLKELLLKPHSYGRFIR [SPDEF], the protein stability index is, setting by setting: under setting [1], 2.69 ± 0.13; under setting [2], 2.65 ± 0.19.

Consider QPNTYADFEFLAFWQTQYNNMNAV [PKD2L1], for which the protein stability index runs as follows: under setting [1], 2.21 ± 0.4; under setting [2], 2.03 ± 0.24.

As for QPPRFPVPHNGSSEATLPAQMSTL [PDLIM4], the protein stability index is 4.67 ± 0.19 under setting [1] and 4.83 ± 0.089 under setting [2].

In the case of QPPSCQGEAAGSSLIGHLQTLSPD [DUSP5], the protein stability index turned out to be 4.76 ± 0.14 under setting [1] and 4.69 ± 0.13 under setting [2].

Sequence QPSGMKEGVKRYEQEHAAIQDKLF [CHCHD6] came in with a protein stability index under setting [1] of 4.55 ± 0.12 and a protein stability index under setting [2] of 4.14 ± 0.21.

As to QQGEYSEAIPILRAALKLEPSNKT [FKBP8], the protein stability index by setting is: under setting [1], 4.12 ± 0.19; under setting [2], 4.14 ± 0.11.

With QQLEEELLRAKIEVEKLKAIRLRH [RAD54B], the protein stability index by setting is: under setting [1], 5.32 ± 0.25; under setting [2], 5.43 ± 0.27.

As for QQLHQLPRGRLDLATQSLTVETCR [LRRC45], the protein stability index stood at 4.04 ± 0.23 under setting [1] and 3.9 ± 0.32 under setting [2].

Take QQLKEFDGKSLVSVTKEGLELPED [HSP90AB1]: the protein stability index runs as follows: under setting [1], 5.29 ± 0.42; under setting [2], 5.3 ± 0.44.

For QQPSLNTMIQQQNMQQPMNVMTQS [CLINT1], the protein stability index stood at 4.41 ± 0.21 under setting [1] and 4.52 ± 0.087 under setting [2].

For the sequence QQYRQDQRDGSKSEDELDQASTPT [CCND2], the protein stability index by setting is: under setting [1], 5.45 ± 0.2; under setting [2], 5.39 ± 0.12.

For the sequence QRLEEQERRHREEKERRKKQQWEI [RSPH3], the protein stability index reads like this: under setting [1], 4.45 ± 0.28; under setting [2], 4.54 ± 0.31.

With QSKTASDKSPSTVRDQGPSIPLTP [FBF1], the protein stability index reads like this: under setting [1], 5.07 ± 0.21; under setting [2], 5.15 ± 0.099.

With QTALLESSCENKRADLVFIIDSSR [MATN2], the protein stability index by setting is: under setting [1], 3.05 ± 0.24; under setting [2], 3.24 ± 0.28.

Take QTEELKYSIDQEFLKEYFPIEVVT [NLN]: the protein stability index is 3.23 ± 0.37 under setting [1] and 3.49 ± 0.29 under setting [2].

As to QTYFRQNRDEVLDNLLAFVCDIRP [ATP6V1G1], the protein stability index was 2.64 ± 0.44 under setting [1] and 2.27 ± 0.23 under setting [2].

RAAQLQHSEKMAQYLEEERHMREE [CCDC6] displayed a protein stability index under setting [1] of 5.15 ± 0.25 and a protein stability index under setting [2] of 5 ± 0.46.

RAPSERSGPAASEHSHRSHHSLAS [DVL3] displayed a protein stability index under setting [1] of 4.68 ± 0.28 and a protein stability index under setting [2] of 4.68 ± 0.21.

For the sequence RDFHRKILTLPEMMRMFSENLAHH [TRIM15], the protein stability index runs as follows: under setting [1], 2.25 ± 0.17; under setting [2], 2.31 ± 0.051.

Turning to RDNPMCLKCDLQERLLCPSLLAGT [M1AP], the protein stability index is, setting by setting: under setting [1], 2.28 ± 0.14; under setting [2], 2.16 ± 0.23.

For RDQQVEAAQRALVEVLGPYEPLLS [RETREG3], the protein stability index under setting [1] was determined as 3.9 ± 0.17 and the protein stability index under setting [2] is 4.14 ± 0.17.

On to REESLPNLLQYVRMPLLTPRYITD [KLHL12], for which the protein stability index reads like this: under setting [1], 2.8 ± 0.38; under setting [2], 2.63 ± 0.34.

Consider RELRKPEEPENGEPTAAATARRSK [PWWP2B], for which the protein stability index is 5.54 ± 0.16 under setting [1] and 5.51 ± 0.35 under setting [2].

Turning to RGCSRVEGGGTSLHVACELARPEC [ANKRD9], the protein stability index runs as follows: under setting [1], 3.62 ± 0.3; under setting [2], 3.69 ± 0.18.

As to RGELSARQMHLARFLRMLLRLADE [RAD51], the protein stability index turned out to be 2.2 ± 0.27 under setting [1] and 2.42 ± 0.4 under setting [2].

On to RGQCLLYNWEEERATNHLDQVPSM [SPAG8], for which the protein stability index runs as follows: under setting [1], 3.13 ± 0.16; under setting [2], 3.58 ± 0.42.

In the case of RGRAVLREAGFHQYEVSNFARNGA [RSAD1], the protein stability index under setting [1] is 3.36 ± 0.54 and the protein stability index under setting [2] stood at 3.37 ± 0.48.

As to RGVHCWVCDESVRKLSSAVRSGIV [PRIM1], the protein stability index reads like this: under setting [1], 2.24 ± 0.22; under setting [2], 2.19 ± 0.14.
